# Data published in the RNAGym collection of RNA variant scans (doi:10.1073/pnas.2313332121).
# This sample holds only a part of the variants without activity.
# B1: TPR 5TU (parent)
# chain: GGAUCUUCUCGAUCUAACAAAAAAGACAAAUCUGCCACAAAGCUUGAGAGCAUCUUCGGAUGCAGAGGCGGCAGCCUUCGGUGGCGCGAUAGCGCCAACGUUCUCAACUAUGACACGCAAAACGCGUGCUCCGUUGAAUGGAGUUUAUCAUG
# Variants of: B1
# Assay: polymerase ribozyme fitness, log enrichment relative to wild type (log ratio); higher = more active; in vitro selection for triplet polymerase activity
# In short: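 A single round of triplicate in vitro selection, including frozen incubation at −7 °C, was applied to PCR-built, transcribed mutant libraries of each subunit of a heterodimeric triplet polymerase ribozyme. Illumina sequencing of input and output libraries retained genotypes with ≥10 input reads and ≥1 read per output. Fitness is the base-2 logarithm of genotype enrichment divided by wild-type enrichment, from inverse-variance-weighted replicate averages.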
row,Variant,polymerase ribozyme fitness (log ratio)
1,GGAUCUUCUCGAUCUAACAAAAAAGACAAAUCUGCCACAAAGCGUGAGAACAUCUUGGGAUGCAGAGGCGGGAGCCUUCGGUGGCGCGAUAGCGCCAACGUUCUCAACUAUGAAACGCAAAACGCGUGCUCCGUUGAAUCGAGUUUAUCAUG,≤ -4.2
2,GGAUCUUCUCGAUCUAACAAAAAAGACAAAUCUGCCACAAAGCAUGAGAGCAUCUACGGAAGCAGAGGCGGCAGCCUUCGGUGGCGCGAUAGCGCCUACGUUCUCAACUAUGACACGCAAAACGCGUGCUCCGUUGAAUGGAGUUUAUCAUG,≤ -4.2
3,GGAUCUUCUCGAUCUAACAAAAAAGACAAAUCUGCCACAAAGCGUGAGAGCAUCUUCGGAUGCAGAGGCCGCAGCCUUCGGUAGCGCGAUAGCGCCAACGUUCUCAACUAUGACAAGCAAAACGCGUGCUCCGUUGAAUGGAGUUUAUCAUA,≤ -4.2
4,GGAUCUUCUCGAUCUAACAAAAAAGACAAAUCUGCCACAAAGCGUGAGUGCAUCUUCGGAUGCAGAGGCGGCAGCCUUCGGUGACGCGAGAGCGCCAACGUUCUCAACUAUGACACGCAAAACGCGUGCUUCGUGAAAUGGAGUUUAUCAUG,≤ -4.2
5,GGAUCUUCUCGAUCUAACAAAAAAGACAAAUCUGCCACAAAGCAUGAGAGCAUCUUCGGAUACAGAGGCGGCAGCCUUCGGUGACGCGAUAGCGCCAACGUUCUCAACUAUGACACGCAAAACGCGUGCUCCGAUGAAUGGAGUUUAUCAUG,≤ -4.2
6,GGAUCUUCUCGAUCUAACAAAAAAGACAAAUCUGCCACAAAGCAUGAGAGCAUCUUCCGAUGCAGAGGCGGCAGCCUUCGGUGGCGCGAUACCGCCAACGUUCUCAACUAUGACACGCAAAACGCGUGCUCCGUUGAAUGUAGUUUAUAAUG,≤ -4.2
7,GGAUCUUCUCGAUCUAACAAAAAAGACAAAUCUGCCACAAAGCAUGAGACCAUCUUCGGAUGCAGAGGCGGCAGCCUUCGGUGGCGCGAUAGCGCCAACGUUCUCAACUAUGACACGCAAAACGCGUGCUCCGUUGAAUGGAGUUUAUCAUG,≤ -4.2
8,GGAUCUUCUCGAUCUAACAAAAAAGACAAAUCUGCCACAAAGCCUGAGAGCAUUUUCGGAUGCAGAGGCGGCAGCCUUCGGUGGCGCGAUAGCGCCAACGUUCUCAACUAUGACACGCAAAACGCGUGCUCCGUUGAAUGGAGUUUAUCAUG,-3.56
9,GGAUCUUCUCGAUCUAACAAAAAAGACAAAUCUGCCACAAAGCAUGAGAGCAUCUUCGGAUGCAGAGGCGGCAGCCUUCGAUGGCGCGAUAGCGCCAACGUUCUCAACUAUGACACGCAAAACGCGUGCUCCGUUGGAUGGAGUUUAUCAUG,≤ -4.2
10,GGAUCUUCUCGAUCUAACAAAAAAGACAAAUCUGCCACAAAGCAUGAGAGCAUCUUCGGAUGCAGAGGCGGCAGCCUUCGGUGGCGCGAGAGUGCCAACGUUCUCAACUAUGACACGCAAAACGCGUGCUCCGUUGAAUGGAAUUUAUCAGG,≤ -4.2
11,GGAUCUUCUCGAUCUAACAAAAAAGACAAAUCUGCCACAAAGCCUGAGAGCAUCUUCGGAUGCAGAGGCGGCAGCCUUCGGUGGCUCGAUAGCGCCAACGUUGUCAACUAUGACACGCAAAACGCGUGCUCCGUUGAAUAGAGUUUAACAUG,≤ -4.2
12,GGAUCUUCUCGAUCUAACAAAAAAGACAAAUCUGCCACAAAGCGUGAGAGCAUCUUCGGAUGCAGAGGCGGCAGCCUUCGGUGGCGCGAUAGCGCCAACGUUCUCAACUAUGACACGCAAAACGCGUGCUCCGUUAAAUGGAGUUUAUCAUG,-3.71
13,GGAUCUUCUCGAUCUAACAAAAAAGACAAAUCUGCCACAAAGCCUGAGAGCAUCUUCGGAUGCAGAGGCGGCAGCCUUCGGUGGCGCGUUAGCGCCAACGUUAUCAACUAUGACACGCAUAACGCGUGCUCCGUUGAAUGGAGUUUAUCAUG,≤ -4.2
14,GGAUCUUCUCGAUCUAACAAAAAAGACAAAUCUGCCACAAAGCGUGAGAGCAUCUUCGGAUGCAGAGGCGGCUGCCUUCGGUGGAGCGAUAGCGCCAAUGUUCUCAACUAUGACACGCAAAACGCGUGCUCCGUUGAAUGGCGUUUAUCAUG,≤ -4.2
15,GGAUCUUCUCGAUCUAACAAAAAAGACAAAUCUGCCACAAAGCCUGAGAGCAUCUUCGGAUGCAGAGGCGGCAGCCUUCGGUGGCGCAAUAGCGCCAACGUUCUCAACUAUGACACGCAAAACGCGUGCUCCGUAGAAGGGAGUUUAUCAUG,≤ -4.2
16,GGAUCUUCUCGAUCUAACAAAAAAGACAAAUCUGCCACAAAGCGUGAGAGCAUCUUCGGAUGCAGAGGCGGCAGCCUUCGCUGGCGCGAUAGCGCUAACGUUCUCAAGUAUGACACGCAAAACGCGUGCUCCGUUGAAUGGAGUUUAUCAUG,≤ -4.2
17,GGAUCUUCUCGAUCUAACAAAAAAGACAAAUCUGCCACAAAGCAUGAGAGCAUCUUCGGAUGCAGAGGCGGCAGCCUUCGGUGGCGCGAUAGCGCCAACGUUCUCAACUAUGACACGCAAAACGCGUGCUCCGUUGAAUGGAGGUUAUCAGG,≤ -4.2
18,GGAUCUUCUCGAUCUAACAAAAAAGACAAAUCUGCCACAAAGCAUGAGAACAUCUUCGGAUGCAGAGGCGGCAGCCAACGGUGGCGCGAUAGGGCCAACGUUCUCAACUAUGACCCGCAAAACGCGUGCUCCAUUGAAUGAAGUUUAUCAUG,-4.14
19,GGAUCUUCUCGAUCUAACAAAAAAGACAAAUCUGCCACAAAGCAUGAGAGCAUCUUCGGAUGCAGAAGCGGCAGCCGGCGGUGGCGAGAUAGCGGCAACGUUCUCAACUAUGACACGCAAAACGCGUGCUCCGUUGAAUGGAGUUUAUCAUG,≤ -4.2
